Patent publication US20250213707A1, “COMPOUND FOR INCREASING EFFICACY OF ONCOLYTIC VIRUSES” (ABLEVIA BIOTECH GMBH, priority 2022, published 2025)

target: Polyclonal antibody ab6982 (Abcam); experiment: cyclic peptide microarray, fiber peptides

| Substance | rank of binding signal [rank] |
| --- | --- |
| AHLIIRF (peptide) | 6 |
| AQNQLNI (peptide) | 172 |
| ARPSEDT (peptide) | 41 |
| ATSSYTF (peptide) | 80 |
| AYSMSFS (peptide) | 167 |
| DPEYWNE (peptide) | 53 |
| DTFNPVY (peptide) | 130 |
| EYWNFRN (peptide) | 113 |
| FLDPEYW (peptide) | 50 |
| FSWDWSG (peptide) | 186 |
| FVSPNG (peptide) | 13 |
| GQGPLFI (peptide) | 58 |
| HLIIRFD (peptide) | 60 |
| HNLDINY (peptide) | 9 |
| IFATSSY (peptide) | 104 |
| LGQGPLF (peptide) | 27 |
| LGTGLSF (peptide) | 44 |
| LNLRLGQ (peptide) | 173 |
| LNNSFLD (peptide) | 180 |
| MSFSWDW (peptide) | 22 |

| Substance | rank of binding signal [rank] |
| --- | --- |
| NKGLYLF (peptide) | 20 |
| NQLNLRL (peptide) | 72 |
| NYINEIF (peptide) | 16 |
| PELTPPF (peptide) | 47 |
| PEYWNFR (peptide) | 31 |
| QGPLFIN (peptide) | 93 |
| QLNLRLG (peptide) | 136 |
| QNQLNLR (peptide) | 82 |
| QSAHLII (peptide) | 126 |
| RPSEDTF (peptide) | 24 |
| SAHLIIR (peptide) | 65 |
| SAYSMSF (peptide) | 108 |
| SFSWDWS (peptide) | 100 |
| SMSFSWD (peptide) | 144 |
| SSYTFSY (peptide) | 42 |
| SWDWSGH (peptide) | 193 |
| SYTFSYI (peptide) | 64 |
| YINEIFA (peptide) | 168 |
| YSMSFSW (peptide) | 8 |
| YTESYIA (peptide) | 181 |

target: Polyclonal antibody ab6982 (Abcam); experiment: cyclic peptide microarray, hexon peptides

| Substance | rank of binding signal [rank] |
| --- | --- |
| ALEINLE (peptide) | 33 |
| DDDNEDE (peptide) | 96 |
| DDNEDEV (peptide) | 78 |
| DEVDEQA (peptide) | 10 |
| DIETPDT (peptide) | 62 |
| DRMYSFF (peptide) | 86 |
| EDDDNED (peptide) | 63 |
| EDEVDEQ (peptide) | 126 |
| EEDDDNE (peptide) | 108 |
| EINLEEE (peptide) | 6 |
| ETPDTHI (peptide) | 51 |
| EVDEQAE (peptide) | 17 |
| GDRTRYF (peptide) | 80 |
| IETPDTH (peptide) | 45 |
| IGYQGFY (peptide) | 136 |
| INLEEED (peptide) | 32 |
| KDRMYSF (peptide) | 143 |
| LEINLEE (peptide) | 4 |
| NIGYQGF (peptide) | 187 |
| NLEEEDD (peptide) | 65 |
| TRYFSMW (peptide) | 73 |
| VDEQAEQ (peptide) | 20 |
| YSFFRNF (peptide) | 104 |
